From the RNAGym collection of RNA variant scans (doi:10.1073/pnas.2313332121) come the findings set out here.

B1: TPR t1 (parent)
chain: GACCAAUCUGCCCUCAGAGCUCGAGAACAUCUUCGGAUGCAGAGGAGGCAGGCUUCGGUGGCGCGAUAGCGCCAACGUCCUCAACCUCCAAUGCAUCCCACCACAUGAUGAUGCCUGAAGAGCCUUGGUUUUUUG

Variants of B1 are the subject of this data set. Kind of data set: polymerase ribozyme fitness, log enrichment relative to wild type (log ratio); higher = more active; in vitro selection for triplet polymerase activity. In a few lines:
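Streptavidin-bead capture of gel-excised extended constructs, followed by RT-PCR, closed a single triplicate in vitro selection round. That round began by annealing PCR-built, transcribed mutant libraries of each subunit of a heterodimeric triplet polymerase ribozyme with a biotinylated primer, the partner subunit and triplets, then incubating them frozen at −7 °C. After Illumina sequencing of inputs and outputs, genotypes needed ≥10 input reads and ≥1 read per output. Fitness is the base-2 logarithm of genotype enrichment over wild-type enrichment, using inverse-variance-weighted replicate averages.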
Consider GACCAAUCUGCCCUCAGAGCUCGAGAACAUCUUCGGAUGCAGAGGGGGCAGGCUUCGGUGGCGCGAUAGCGCCAACGUACUCAACCUCCAUUGCAUCCCACCACUUGAUGAUGCCUGAAGAGCAAUGGUUUUUUG [A46G C79A A91U A105U C124A U125A], for which the “polymerase ribozyme fitness (log ratio)” value is -6.73.
In the case of GACCAAUCUGCCCUCAGAGCUCGAGAACAUCUUCGGAUGCAGAGGGGGCAGGCUUCGGUGUCGCGAUAGCGCCAACGUCCUCAACCUCCAAUGCAUCCCACCACAUGAUGAUGCCUGAAGAGCCUUGGUUUUUUG [A46G G61U] it was -0.252; in that of GACCAAUCUGCCCUCAGAGCUCGAGAACAUCUUCGGAUGCAGAGGGGGCAGGCUUCGGUGGCGCGAUAGUGCCAACGUCCUCAACCUCCAAUGCAUCCCACCACAUGAUGAUGCCUGAAGAGCCUUGGUUUUUUG [A46G C70U], -0.0806.
GACCAAUCUGCCCUCAGAGCUCGAGAACAUCUUCGGAUGCAGAGGGGGCAGGCUUCGGUGGCGCGAUAGCGCCAACGUCUUCAACCUCCAAUGUAUCCCACCACAUGAUGAUGCCUGAAGAGCCUUGGUUUUUUG [A46G C80U C94U]: the “polymerase ribozyme fitness (log ratio)” value is -1.95.
As for GACCAAUCUGCCCUCAGAGCUCGAGAACAUCUUCGGAUGCAGAGGGGGCAGGCUUCGGUGGCGCGAUAGCGCCAACGUCCUCAACCUCCAAUGCAUCCCACCAAAUGAUGAUACCUGAAGAGCCUUGGUUUUUUG [A46G C104A G113A], the “polymerase ribozyme fitness (log ratio)” value is -2.84.
Turning to GACCAAUCUGCCCUCAGAGCUCGAGAACAUCUUCGGAUGCAGAGGGGACAGGCUUCGGUGGCGCGAUAGCGCCAACGUCCUCAACCUCCAAUGCAUCCCACCACAUGAUGAUGCCUGAAGAGCCUUGGUUUUUUG [A46G G48A], the “polymerase ribozyme fitness (log ratio)” value is -0.934.
In the case of GACCAAUCUGCCCUCAGAGCUCGAGAACAUCUUCGGAUGCAGAGGGGGCAGGCUUCAGUGGCGCGAUAGCGCCAACGUCCUCGACCUCCAAUGCAUCCCACCACAUGAUGACGCCUGAAGAGCCUUGGUUUUUUG [A46G G57A A83G U112C] it was 0.022.
The value for GACCAAUCUGCCCUCAGAGCUCGAGAACAUCUUCGGAUGCAGAGGGGGCAGGCUUCGGUGGCGCGAUAGCGCCAACGUCCUCAACCUCCAAUGCAUCCCACCACAAGAUGAUGCCUGAAGAGCCUUGGUUUUUUG [A46G U106A] was 0.118.
The value for GACCAAUCUGCCCUCAGAGCUCGAGAACAUCUUCGGAUGCAGAGGUGGCAGGCUUCGGUGGCGCGAUAGCGCCUACGUCCUCAACCUCCAAUGCAUCCCACCACAUGAUGAUGCCUGAAGAGCCUUGGUUUUUUG [A46U A74U] was -0.906.
For GACCAAUCUGCCCUCAGAGCUCGAGAACAUCUUCGGAUGCAGAGGGGGCAGGCUUCGGUGGCCCGAUAGCGCCAACGUCCUCAACCUCCAAUGCAUCCCACCACAUGAUGAUGCCUGAAGAGCCUUGGUUUUUUG [A46G G63C], the “polymerase ribozyme fitness (log ratio)” value was -1.22.
The value for GACCAAUCUGCCCUCAGAGCUCGAGAACAUCUUCGGAUGCAGAGGGGGCAGGCUUCGGUGGCGCGAUAUCGCCAACGACCUCAACCUCCAAUGUAUCCCACCACAUGAUGAUGCAUGAAGAGCCUUCGUUUUUUG [A46G G69U U78A C94U C115A G127C] was -2.24; that for GACCAAUCUGCCCUCAGAGCUCGAGAACAUCUUCGGAUGCAGAGGGGGCAGGCUUCGGUGGCGCGAUAGCGCCAACGUCCUCAACCUCCAAUGCAUUCCACCACAUGAUGAUGGCUGAAGAGCCUUGGUUUUUUG [A46G C97U C114G] was -4.73; that for GACCAAUCUGCCCUCAGAGCUCGAGAACAUCUUCGGAUGCAGAGGGGGCAGGCUUCGGUGGCGCGAUAGCGCCAACGUCCUCAACAUCCAAUGCAUCCCACCACAUGAUGAUGCCUGAACAGCCUUGGUUUUUUG [A46G C86A G120C] was -0.884.
In the case of GACCAAUCUGCCCUCAGAGCUCGAGAACAUCUUCGGAUGCAGAGGGGGCAGGCUUCGAUGGCGCGAUAGCGCCAACGUCCUCCACCUCCAAUGCAUCCCACCACAUUAUGAUGCCUGAAGCGCCUUGGUUUUUUG [A46G G58A A83C G107U A121C] it was -4.18; in that of GACCAAUCUGCCCUCAGAGCUCGAGAACAUCUUCGGAUGCAGAGGGUGCAGGCUUCGGUGGCGCGAUAGCGCCAACGUCCUCAACCUCCAAUGCAUCCCACCACAUGAUGAUGCCUGAAGAGCCUUGGUUUUUUG [A46G G47U], -1.31.
With GACCAAUCUGCCCUCAGAGCUCGAGAACAUCUUCGGAUGCAGAGGUGGCAGGCUUCGGUGGCGCGGUAGCGCCAACGUCCUCAACCUCCAAUGCAUCCCACCACAUGAUGAUGCCUGAAGAGACUUGGUUUUUUG [A46U A66G C123A], the “polymerase ribozyme fitness (log ratio)” value is -2.03.
The value for GACCAAUCUGCCCUCAGAGCUCGAGAACAUCUUCGGAUGCAGAGGGGGCAGGCUUCGGUAGCGCGAUAGCGCCAACGUCCUCAACCUCCAAUGCAUCCCACCACAUGAUGAUGCCUGAAGAGCCUUGGUUUUUUG [A46G G60A] was 0.0971; that for GACCAAUCUGCCCUCAGAGCUCGAGAACAUCUUCGGAUGCAGAGGUGGCAGGCUUCGGUGGCGCGAUAGCGCCCACGUCCUCAACCUCCAACGCAUCCCACCACAUGAUGAUGCCUGAAGAGCCUUGGUUUUUUG [A46U A74C U92C] was -1.48; that for GACCAAUCUGCCCUCAGAGCUCGAGAACAUCUUCGGAUGCAGAGGGGGCAGGCUUCGGUGGCGCGAUAGCGUGAACGUCCUCAACCUCCAAUGCAUCCCACCACAUGAUGAUGCCUCAAGAGCCUUGGUUUUUUG [A46G C72U C73G G117C] was -4.79.
GACCAAUCUGCCCUCAGAGCUCGAGAACAUCUUCGGAUGCAGAGGGGGCAGGCUUCGGUGGCGCGAUAGCACCAACGUCAUCAACCUCCAAUGCAUCCCACCACAUGAUGAUGCCUGAAGAGCCUUGGCUUUUUG [A46G G71A C80A U129C]: the “polymerase ribozyme fitness (log ratio)” value was -5.8.
In the case of GACCAAUCUGCCCUCAGAGCUCGAGAACAUCUUCGGAUGCAGAGGGGGCAGGCUUCGGUGGCGCGAUAGCGCCAAUGUCCUCAACCUCCAAUGGAUCCCACCACAUGAUGAUGCCUGAACAGCCUUGGUUUUUUG [A46G C76U C94G G120C] it was -1.42.
